# Results from article PMC11945486, “TAS1R2/TAS1R3 Single-Nucleotide Polymorphisms Affect Sweet Taste Receptor Activation by Sweeteners: The SWEET Project” (Nutrients, 2025).
# Read-outs that look alike come from different tables or passages of the source. No end group written: not given here.
# B1: thaumatin (protein)
# chain: ATFEIVNRCSYTVWAAASKGDAALDAGGRQLNSGESWTINVEPGTKGGKIWARTDCYFDDSGSGICKTGDCGGLLRCKRFGRPPTTLAEFSLNQYGKDYIDISNIKGFNVPMDFSPTTRGCRGVRCAADIVGQCPAKLKAPGGGCNDACTVFQTSEYCCTTGKCGPTEYSRFFKRLCPDAFSYVLDKPTTVTCPGSSNYRVTFCPTA
# modifications: Eight disulfides
# notes: sweet-tasting plant protein, E957
# How the values were obtained:
# [1] = biological target: T1, human TAS1R2-C9S/TAS1R3-WT (Homo sapiens, UniProt Q7RTX0+Q8TE23); test: Calcium mobilisation assay, TAS1R2 variant C9S with TAS1R3-WT; assay type: cell-based; details: for Max ΔF/F0: maximal signal amplitude
# T1 construct: expressed in transfected cells; host or cells: HEK293T-Gα16gust44
# T1 sequence (Q8TE23 20-839): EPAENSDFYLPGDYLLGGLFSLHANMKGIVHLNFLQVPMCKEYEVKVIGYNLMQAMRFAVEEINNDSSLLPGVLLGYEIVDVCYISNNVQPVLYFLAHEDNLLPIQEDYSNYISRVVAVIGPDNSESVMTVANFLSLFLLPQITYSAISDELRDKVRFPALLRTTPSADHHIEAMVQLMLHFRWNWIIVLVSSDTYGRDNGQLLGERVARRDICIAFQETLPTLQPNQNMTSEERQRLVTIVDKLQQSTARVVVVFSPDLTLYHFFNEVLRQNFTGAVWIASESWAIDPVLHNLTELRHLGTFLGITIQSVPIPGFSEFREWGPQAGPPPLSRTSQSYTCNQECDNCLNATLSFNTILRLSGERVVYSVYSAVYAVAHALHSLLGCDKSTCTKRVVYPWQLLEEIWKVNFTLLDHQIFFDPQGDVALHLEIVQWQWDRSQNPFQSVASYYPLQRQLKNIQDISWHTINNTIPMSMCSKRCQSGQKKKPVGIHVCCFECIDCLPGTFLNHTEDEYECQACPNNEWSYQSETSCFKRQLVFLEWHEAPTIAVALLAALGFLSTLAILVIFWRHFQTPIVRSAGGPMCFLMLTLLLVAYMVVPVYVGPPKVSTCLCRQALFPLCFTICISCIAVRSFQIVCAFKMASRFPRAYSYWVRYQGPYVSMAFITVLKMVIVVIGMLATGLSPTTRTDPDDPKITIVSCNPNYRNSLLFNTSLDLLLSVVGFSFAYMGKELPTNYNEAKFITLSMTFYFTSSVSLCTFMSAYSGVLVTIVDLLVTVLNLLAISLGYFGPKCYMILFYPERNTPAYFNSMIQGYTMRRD
# T1 sequence (Q7RTX0 21-852): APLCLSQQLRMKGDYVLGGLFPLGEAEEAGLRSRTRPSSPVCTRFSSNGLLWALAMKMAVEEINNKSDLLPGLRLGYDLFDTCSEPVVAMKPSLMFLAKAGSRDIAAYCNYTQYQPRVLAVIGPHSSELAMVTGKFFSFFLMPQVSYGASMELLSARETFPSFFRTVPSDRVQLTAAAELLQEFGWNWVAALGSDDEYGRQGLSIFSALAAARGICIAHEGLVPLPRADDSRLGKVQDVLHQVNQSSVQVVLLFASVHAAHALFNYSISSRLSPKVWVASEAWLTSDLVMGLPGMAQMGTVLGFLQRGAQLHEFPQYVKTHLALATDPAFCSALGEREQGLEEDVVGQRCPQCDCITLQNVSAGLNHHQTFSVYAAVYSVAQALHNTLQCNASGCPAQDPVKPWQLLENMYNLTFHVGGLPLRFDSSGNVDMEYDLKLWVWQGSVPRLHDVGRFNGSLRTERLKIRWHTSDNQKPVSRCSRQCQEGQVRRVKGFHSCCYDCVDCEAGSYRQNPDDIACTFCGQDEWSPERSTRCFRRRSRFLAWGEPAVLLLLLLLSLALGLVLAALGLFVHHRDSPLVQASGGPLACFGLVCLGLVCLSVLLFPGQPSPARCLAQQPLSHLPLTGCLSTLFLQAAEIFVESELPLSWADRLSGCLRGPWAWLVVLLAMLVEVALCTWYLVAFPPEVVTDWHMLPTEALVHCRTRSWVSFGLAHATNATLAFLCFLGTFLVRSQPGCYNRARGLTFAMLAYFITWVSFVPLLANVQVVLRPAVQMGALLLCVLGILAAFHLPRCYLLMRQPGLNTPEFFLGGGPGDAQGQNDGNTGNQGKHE
# Excerpt: (§1) The coding sequences for TAS1R2 and TAS1R3 were commercially synthesised, and the human codon was optimised for expression in human cells. The coding sequences of human TAS1R2 and TAS1R3 were subcloned and inserted into the mammalian expression vectors pcDNA6/myc-HisA and pcDNA4/myc-HisA (Invitrogen; Thermo Fisher Scientific; Illkirch, France) between the EcoRI and NotI restriction sites, generating the plasmids pcDNA6-TAS1R2 and pcDNA4-TAS1R3, respectively. To increase protein expression in mammalian cells, an upstream start codon was used, which was a sequence called MAX, corresponding to the QBI SP163 element also described in pcDNA4-HisMax (Invitrogen; Thermo Fisher Scientific; Illkirch, France). To measure the expression level of the receptor by immunohistochemistry, we used the FLAG sequence ([…]) in the C-terminal position, which encodes the FLAG tag epitope. SNP variants of TAS1R2 and TAS1R3 were constructed based on […], respectively, using site-directed mutagenesis (Genewiz; Leipzig, Germany).
# (§2) The HEK293T cells were kindly provided by Jay P. Slack (Givaudan Flavors Corporation; Cincinnati, OH, USA). HEK293T cells stably transfected with Gα16gust44 [43, 67] were seeded in poly-D-lysine-coated clear-bottom black 96-well plates (0.35 × 10^5 cells/well) in high-glucose DMEM supplemented with 2 mM GlutaMAX, 10% dialysed foetal bovine serum with penicillin/streptomycin and G418 (400 μg/mL) at 37 °C and 6.3% CO2 in a humidified atmosphere as previously reported. […] As a negative control, HEK293T cells were mock-transfected with the empty expression vector. After a further 24 h of incubation, the HEK293T cells were washed with C1 buffer (130 mM NaCl, 5 mM KCl, 10 mM HEPES pH 7.4 and 2 mM CaCl2). The 96-well plates containing the cells were then stimulated with sweet-tasting compounds. […] Different concentration ranges were tested depending on the sweet compound injected. The Ca^2+ changes were expressed as fractional changes in fluorescent light intensity: ΔF/F = (F − F0)/F0, where F was the fluorescent light intensity at each point, and F0 was the value of emitted fluorescent light prior to stimulus application. To calculate dose–response relationships, the changes in fluorescence upon stimulus application were averaged, mock-subtracted and baseline-corrected. The dose–response data obtained were adjusted using a 4-parameter logistic equation. The half-maximal effective concentrations (EC50 values) and maximal signal amplitudes were calculated using SigmaPlot software (version 15.0) (Systat Software; San Jose, CA, USA).
# (§3) For in vitro calcium mobilisation assay performed on hTAS1R2-SNPs, hTAS1R3-SNPs and mTAS1R3-I60T, 6 to 7 concentrations were tested for each sweet compound, plus buffer alone. All concentration–receptor combinations were measured in duplicate, and each experiment was repeated at least 4 times (8 wells/concentration). Results were expressed for each concentration as ΔF/F mean ± SEM and represented as dose–response curves.
# [2] = biological target: T2, human TAS1R2-WT/TAS1R3-WT (Homo sapiens, UniProt Q7RTX0+Q8TE23); test: Calcium mobilisation assay, HEK293T-Gα16gust44 cells, human sweet taste receptor WT; assay type: cell-based; details: for Max ΔF/F0: maximal signal amplitude
# T2 construct: expressed in transfected cells; host or cells: HEK293T-Gα16gust44
# T2 sequence (Q8TE23 20-839): T1 sequence (Q8TE23 20-839)
# T2 sequence (Q7RTX0 21-852): T1 sequence (Q7RTX0 21-852)
# Excerpt: as §1, §2, §3
Molecule,R1 = Variant EC50/WT EC50 [1],Max ΔF/F0 [1],R1 = Variant EC50/WT EC50 ([2]; TAS1R2-WT + TAS1R3-WT),Max ΔF/F0 ([2]; TAS1R2-WT + TAS1R3-WT),R1 = Variant EC50/WT EC50 ([2]; TAS1R2-WT/TAS1R3-WT),"EC50 ([2]; TAS1R2-WT/TAS1R3-WT, brazzein) [µg/mL]",Max ΔF/F0 ([2]; TAS1R2-WT/TAS1R3-WT),EC50 [1] [µM],"EC50 ([2]; TAS1R2-WT + TAS1R3-WT, read-out: EC50) [µM]","EC50 ([2]; TAS1R2-WT/TAS1R3-WT, read-out: EC50) [µM]"
"brazzein (QDKCKKVYENYPVSKCQLANQCNYDCKLDKHARSGECFYDEKRNLQCICDYCEY; ends and bridges not checked; cysteine pairing not given here; UniProt P56552 1-54, looked up) [sweet-tasting protein obtained by recombinant production using the yeast Pichia pastoris]",1.2,1.14 ± 0.03,1.0,1.17 ± 0.04,1.0,112.8 ± 11.2,0.88 ± 0.03,,,
thaumatin,0.9,0.61 ± 0.01,1.0,0.72 ± 0.01,1.0,,0.57 ± 0.02,,,
B1,,,,,,,,6.6 ± 0.1,7.6 ± 0.3,10.4 ± 0.6
